According to patent publication US10836815B2, “Generation and comparative kinetic analysis of new glycosynthase mutants from Streptococcus pyogenes endoglycosidases for antibody glycoengineering” (UNIVERSITY OF MARYLAND, COLLEGE PARK, priority 2017, dated 2020):
“Also recorded” adds a separate entry of the source.

Assays:
Format in all cases: biochemical
[1] = Kinetic measurements (KM, Vmax) of Endo-S/Endo-S2 mutants for SCT-Oxa
Protocol: Using a sialylated glycan oxazoline (SCT-Oxa) as the donor and the deglycosylated rituximab as the acceptor substrate, we measured the kinetic parameters of the enzyme catalyzed glycosylation were measured. A mass spectrometry-based approach with an internal standard was used to estimate the product formation.^31-33.
(§1) Peptide-N-Glycosidase F (PNGase F) treated rituximab was used as the internal standard due to its similarities to the deglycosylated and transferred product in terms of their molecular structures and ionization efficiencies. After PNGase F treatment, a mutation will be introduced into the amino acid sequence of rituximab so the product antibody will not interfere with the reaction via re-glycosylation^35. A standard product S2G2F-rituximab was synthesized following the previously reported procedure^29. […] Serial dilutions containing a gradient of S2G2F-rituximab (0, 0.25, 0.5, 0.75, 1.0, 1.25 and 1.5 μM) were mixed with a stock solution containing 0.67 μM internal standard. These mixed sample solutions were quantified by selected ion monitoring (SIM) to calculate the single-point normalization factor^31. The factor could then be used to calculate the relative amount of the final product N-glycoform for each reaction in the following experiments.
Measurements of KM and Vmax for SCT-oxa. Serial dilutions with a total volume of 10 μL were prepared with a gradient of SCT-oxa concentrations and a constant deglycosylated antibody concentration mixed in PBS, pH 7.4. Each reaction was initiated by adding 1μμL, of Endo-S/S2 mutants with a concentration of 0.1 mg/M1 and the reaction was conducted at 30° C. The concentrations of SCT-oxa were within a range from 6.25 μM to 400 μM. For each reaction, three aliquots were taken at t=1, 2 and 3 min and immediately quenched in 100 μL 0.1% formic acid. The quenched reaction samples were then characterized by ESI-MS, and the concentration of product in each mixture was calculated using the normalization factor, as shown above. […] The KM and Vmax were measured by fitting the initial velocity against the SCT-oxa concentration using the GraphPad Prism7 program. The experiments were conducts in triplicate to determine the error in these measurements.

[2] = test system: deglycosylated rituximab; test: Kinetic measurements (KM, Vmax) of Endo-S/Endo-S2 mutants for deglycosylated rituximab
Source text: as §1
Measurements of KM and Vmax for SCT-oxa. Serial dilutions with a total volume of 10 μL were prepared with a gradient of SCT-oxa concentrations and a constant deglycosylated antibody concentration mixed in PBS, pH 7.4. Each reaction was initiated by adding 1μμL, of Endo-S/S2 mutants with a concentration of 0.1 mg/M1 and the reaction was conducted at 30° C. The concentrations of SCT-oxa were within a range from 6.25 μM to 400 μM. For each reaction, three aliquots were taken at t=1, 2 and 3 min and immediately quenched in 100 μL 0.1% formic acid. The quenched reaction samples were then characterized by ESI-MS, and the concentration of product in each mixture was calculated using the normalization factor, as shown above. A linear progression curve was confirmed for each reaction by sampling at multiple early time points and plotting them in the same graph, which emphasized that the V0 measured indeed represents the initial rate of each reaction. The KM and Vmax were measured by fitting the initial velocity against the SCT-oxa concentration using the GraphPad Prism7 program. The experiments were conducts in triplicate to determine the error in these measurements.
The KM and Vmax values of both Endo-S and Endo-S2 mutants for the deglycosylated antibody substrate were measured in a similar fashion as to those for SCT-Oxa. In the serial reactions, the concentrations of antibody range from 0.313 μM to 20 μM, whereas the SCT-Oxa concentration was fixed at 400 μM. A similar control reaction was also performed for each concentration to monitor the non-enzymatic side reactions.

[3] = test system: rituximab; test: Hydrolysis activity assay of Endo-S and D233 mutants, LC-ESI-MS
Protocol: (§2) The hydrolytic activity of the mutants generated was evaluated using rituximab as the substrate, and the transglycosylation activity was evaluated using the sugar oxazoline and the deglycosylated rituximab as the donor and acceptor substrates, respectively (Scheme 1).
(§3) The LC-MS characterization of different antibody glycoforms was conducted on an Exactive Plus Orbitrap instrument (Thermo Scientific). The intact antibody sample was analyzed with a Waters XBridge™ BEH300 C4 column (3.5 μm, 2.1×50 mm). The program includes a 9 min linear gradient of 5-90% MeCN containing 0.1% formic acid at a flow rate of 0.4 mL/min. The original mass data were processed through deconvolution and integration through MagTran Software (Amgen).
as §1
(§4) The hydrolytic activity of each Endo-S mutants and the wild-type (0.01 mg/mL) was assayed in PBS (pH 7.4, 10 μl) at 30° C. with synthetic biantennary sialo-complex-type rituximab (1.0 mg/mL, 6.9 μM) as the starting material. Each reaction was terminated at 5 min and an aliquot was taken from the reaction mixture and dissolved in 0.1% formic acid. The relative quantity of the hydrolysis product was calculated through deconvolution and integration of the selected MS peaks. The experimental details of product quantification using LC-MS are illustrated below. The transglycosylation activity of Endo-S was measured in a similar fashion: deglycosylated Rituximab (10.0 mg/mL, 69 μM) was incubated with SCT-Oxa (1.38 mM, 20 eq) under catalysis of Endo-S enzymes (0.01 mg/mL) under the same condition as hydrolysis. The transglycosylation product SCT-Rituximab was analyzed as mentioned above. Both functional assays were repeated twice for each mutant and the wild-type, and the average activity was recorded

[4] = test system: deglycosylated rituximab; test: Time-course comparison of transglycosylation with SCT-Oxazoline monitored by LC-ESI-MS (FIG. 1); settings: D233M, D233Q, D233A compared with glycan oxazoline under same conditions
Source text: The data sets presented here are representative of three independent experiments.
The parallel reactions were monitored by LC-ESI-MS (FIG. 1).

[5] = test system: deglycosylated rituximab; test: Transglycosylation activity assay of Endo-S and D233 mutants, LC-ESI-MS
Protocol: as §2, §3, §1, §4

[6] = Endo-S mutants, donor substrate SCT-Oxa, PBS pH 7.4, 30° C.
[7] = Endo-S mutants, acceptor substrate deglycosylated rituximab, SCT-Oxa fixed at 400 μM

B1: Endo-S D233M (protein)
chain: MDKHLLVKRTLGCVCAATLMGAALATHHDSLNTVKAEEKTVQVQKGLPSIDSLHYLSENSKKEFKEELSKAGQESQKVKEILAKAQQADKQAQELAKMKIPEKIPMKPLHGPLYGGYFRTWHDKTSDPTEKDKVNSMGELPKEVDLAFIFHDWTKDYSLFWKELATKHVPKLNKQGTRVIRTIPWRFLAGGDNSGIAEDTSKYPNTPEGNKALAKAIVDEYVYKYNLDGLDVMVEHDSIPKVDKKEDTAGVERSIQVFEEIGKLIGPKGVDKSRLFIMDSTYMADKNPLIERGAPYINLLLVQVYGSQGEKGGWEPVSNRPEKTMEERWQGYSKYIRPEQYMIGFSFYEENAQEGNLWYDINSRKDEDKANGINTDITGTRAERYARWQPKTGGVKGGIFSYAIDRDGVAHQPKKYAKQKEFKDATDNIFHSDYSVSKALKTVMLKDKSYDLIDEKDFPDKALREAVMAQVGTRKGDLERFNGTLRLDNPAIQSLEGLNKFKKLAQLDLIGLSRITKLDRSVLPANMKPGKDTLETVLETYKKDNKEEPATIPPVSLKVSGLTGLKELDLSGFDRETLAGLDAATLTSLEKVDISGNKLDLAPGTENRQIFDTMLSTISNHVGSNEQTVKFDKQKPTGHYPDTYGKTSLRLPVANEKVDLQSQLLFGTVTNQGTLINSEADYKAYQNHKIAGRSFVDSNYHYNNFKVSYENYTVKVTDSTLGTTTDKTLATDKEETYKVDFFSPADKTKAVHTAKVIVGDEKTMMVNLAEGATVIGGSADPVNARKVFDGQLGSETDNISLGWDSKQSIIFKLKEDGLIKHWRFFNDSARNPETTNKPIQEASLQIFNIKDYNLDNLLENPNKFDDEKYWITVDTYSAQGERATAFSNTLNNITSKYWRVVFDTKGDRYSSPVVPELQILGYPLPNADTIMKTVTTAKELSQQKDKFSQKMLDELKIKEMALETSLNSKIFDVTAINANAGVLKDCIEKRQLLKK
Km [1, 6]: 195 ± 7.21 µM
kcat [1, 6]: 0.0832 ± 0.0152 s⁻¹
increase in kcat/KM over Endo-S D233A ([1]; SCT-Oxa): 3 fold
increase in turnover (kcat) over D233A ([1]; SCT-Oxa): approximately 4 fold
reduced affinity (KM) versus D233A ([1]; SCT-Oxa): less than 2 fold
substrate affinity for the deglycosylated antibody (in words) ([2]; Asp-to-Met versus Asp-to-Ala mutant): much higher substrate affinity than the D233A mutant
Km [2, 7]: 30.2 ± 7.21 µM
kcat [2, 7]: 0.0922 ± 0.0318 s⁻¹
Km ([2]; Endo-S mutants, acceptor substrate deglycosylated rituximab, SCT-Oxa fixed at 400 μM, listed as D233M): 30 µM
Specific Hydrolysis Activity ([3]; rituximab 1.0 mg/mL as substrate, enzyme 0.01 mg/mL, PBS pH 7.4, 30° C., 5 min, duplicate): 0.02 100*(μmol/min/mg)
hydrolysis activity (in words) ([3]; rituximab as substrate, compared with wild type Endo-S and other mutants): remarkably low residual hydrolysis activity
transglycosylation efficiency in time-course (in words) [4]: more efficient than the previously identified mutants, D233A and D233Q
enhanced synthetic efficiency (T/H) over D233A ([5]; based on Table 1): ~8 fold
enhanced synthetic efficiency (T/H) over D233Q ([5]; based on Table 1): approximately 3 fold
transglycosylation activity (in words) ([5]; biantennary complex-type glycan oxazoline to deglycosylated rituximab): most significant transglycosylation activities; also recorded: relatively high transglycosylation activity
Transglycosylation Activity ([5]; deglycosylated rituximab 10.0 mg/mL, SCT-Oxa 1.38 mM (20 eq), enzyme 0.01 mg/mL, PBS pH 7.4, 30° C., duplicate): 2.71 100*(μmol/min/mg)
Transglycosylation/Hydrolysis Ratio T/H ([5]; ratio of transglycosylation to hydrolysis activity, Table 1): 135.50
overall efficiency for glycoform synthesis (T/H, in words) ([5]; ratio of transglycosylation/hydrolysis): highest overall synthetic efficiency
